The values that follow come from patent US20180066066A1 (University of Texas, published 2018).

Assay [1] has as its target T1, human HER3 receptor on cells (human, UniProt P21860 20-1342). The experiment in a line: cell-based or functional assay.
For assay [2], the target named is T1, human HER3 receptor on cells. The experiment in a line: cell-based or functional assay. The source holds these as a separate data set.
The target of another assay is T2, Her3/His10 receptor (UniProt P21860 20-643, limits assumed).
T2 construct: extracellular domain; also called HER3 ECD tagged with 10 histidine (His); not shown: tag of 10 histidines
T2 sequence (P21860 20-643 limits assumed): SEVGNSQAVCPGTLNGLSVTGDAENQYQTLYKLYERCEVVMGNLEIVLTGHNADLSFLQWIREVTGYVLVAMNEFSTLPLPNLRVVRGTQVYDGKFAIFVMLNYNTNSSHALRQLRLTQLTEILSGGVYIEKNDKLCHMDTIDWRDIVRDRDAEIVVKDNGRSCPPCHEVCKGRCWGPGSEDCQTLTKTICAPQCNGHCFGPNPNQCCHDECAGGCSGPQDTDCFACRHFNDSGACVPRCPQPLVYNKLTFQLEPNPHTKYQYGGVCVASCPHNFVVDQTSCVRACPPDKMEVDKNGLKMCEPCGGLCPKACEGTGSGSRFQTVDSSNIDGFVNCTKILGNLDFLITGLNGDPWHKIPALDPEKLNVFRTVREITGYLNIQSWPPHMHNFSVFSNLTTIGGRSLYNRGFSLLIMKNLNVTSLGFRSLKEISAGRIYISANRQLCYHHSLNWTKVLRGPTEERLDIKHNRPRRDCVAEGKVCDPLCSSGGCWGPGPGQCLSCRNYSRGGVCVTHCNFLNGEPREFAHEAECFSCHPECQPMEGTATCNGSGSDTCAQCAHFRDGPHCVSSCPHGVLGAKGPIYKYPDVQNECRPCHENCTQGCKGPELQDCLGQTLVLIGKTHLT
The assay can be described thus: AlphaScreen, blocking of biotinylated NRG-1beta binding to Her3/His10 (column head prints EC50, title and text IC50). As to the method:
HER3 ligand neuregulin (NRG1) can bind on HER3 extracellular domain and activates HER3 phosphorylation and down-stream signaling. Blocking ligand binding on HER3 by the selected rabbit HER3 monoclonal antibodies was determined using alpha screen format assay. NRG1 (R&D Systems) was biotinylated using a biotinylation kit (Fisher Scientific) and HER3 ECD was tagged with 10 histidine (His). Purified anti-HER3 Mabs were serially diluted two-fold into an assay buffer made from 25 mM Hepes, 100 mM NaCl, 0.5% BSA and 0.05% Tween20 in an opaque/white, half-well area plate (Costar). Rabbit IgG1 was used as a negative control. Biotinylated NRG-lbeta ligand and Her3/His₁₀ receptor were added sequentially at 10 nM concentration to the assay plate containing serially diluted antibodies. The mixture of receptor, ligand and the antibodies was incubated at room temperature with gentle shaking for 90 minutes. AlphaScreen Streptavidin Donor beads and His-Nickel Acceptor beads were added into the assay at a final concentration of 20 μg/ml each. The assay plates were covered with foil and incubated at room temperature with gentle shaking for 1 hour. The plates were read in EnVision plate reader.

Assay [3] concerns the target T3, human HER3/ErbB3 extracellular domain (human, UniProt P21860 20-643).
T3 construct: extracellular domain; the range 1-643 of M34309 is printed only for the immunogen; also called Human HER3 ECD; recombinant human HER3
The experiment in a line: SPR, Biacore T-100; antibody captured by anti-rabbit IgG, recombinant human HER3 as analyte. As for the experimental part: All experiments were performed at 25° C. at a flow rate of 45 μl/min. To prepare a BIAcore assay, an anti-rabbit IgG antibody (50 μg/ml each in acetate buffer, pH 5.0) was immobilized onto a carboxymethyl dextran sensorchip (CM5) using amine coupling procedures as described by the manufacturer. Purified rabbit Mabs to be tested were diluted at a concentration of 5 μg/ml in 0.5% P20, HBS-EP buffer and injected on FC2 to reach 500 to 1000 RU. FC1 was used as the reference cell. Specific signals correspond to the difference of signals obtained on FC2 versus FC1. The analyte (recombinant human HER3, apparent molecular weight 97 kDa on SDS-PAGE gel) was injected during 90 sec at series of concentration dilutions (100, 50, 25, 12.5, 6.25, and 3.13, 1.56 nM) in 0.5% P20, HBS-EP buffer. These concentrations were prepared from stock solution in 0.5% P20, HBS-EP. The dissociation phase of the analyte was monitored over a 30 minute period. Running buffer was also injected under the same conditions as a double reference. After each running cycle, both flow cells were regenerated by injecting 20 to 45 μl of glycine-HCl buffer pH 1.5. Binding KD on HER3 was calculated by koff/kon kinetic rate for each HER3 monoclonal antibody (Table 2).

Assay [4] deals with T1, human HER3 receptor on cells. The assay can be described thus: cell-based or functional assay. The source holds these as a separate data set.
Assay [5] addresses T3, human HER3/ErbB3 extracellular domain. The assay can be described thus: SPR, Biacore T-100, HER3 ECD.
For assay [6] the target is unchanged. The assay can be described thus: ELISA on human HER3 ECD.
Assay [7] deals with T1, human HER3 receptor on cells. The experiment in a line: cell-based or functional assay. The source holds these as a separate data set.
Assay [8] addresses T4, Mouse HER3 ECD (mouse, UniProt Q61526 20-641).
T4 construct: extracellular domain; also called mouse HER3 ECD domains
The experiment in a line: ELISA on mouse HER3 ECD; column uncertain.

Assay [9] deals with T4, Mouse HER3 ECD. The experiment in a line: ELISA on mouse HER3 ECD.

T1 sequence (P21860 20-1342): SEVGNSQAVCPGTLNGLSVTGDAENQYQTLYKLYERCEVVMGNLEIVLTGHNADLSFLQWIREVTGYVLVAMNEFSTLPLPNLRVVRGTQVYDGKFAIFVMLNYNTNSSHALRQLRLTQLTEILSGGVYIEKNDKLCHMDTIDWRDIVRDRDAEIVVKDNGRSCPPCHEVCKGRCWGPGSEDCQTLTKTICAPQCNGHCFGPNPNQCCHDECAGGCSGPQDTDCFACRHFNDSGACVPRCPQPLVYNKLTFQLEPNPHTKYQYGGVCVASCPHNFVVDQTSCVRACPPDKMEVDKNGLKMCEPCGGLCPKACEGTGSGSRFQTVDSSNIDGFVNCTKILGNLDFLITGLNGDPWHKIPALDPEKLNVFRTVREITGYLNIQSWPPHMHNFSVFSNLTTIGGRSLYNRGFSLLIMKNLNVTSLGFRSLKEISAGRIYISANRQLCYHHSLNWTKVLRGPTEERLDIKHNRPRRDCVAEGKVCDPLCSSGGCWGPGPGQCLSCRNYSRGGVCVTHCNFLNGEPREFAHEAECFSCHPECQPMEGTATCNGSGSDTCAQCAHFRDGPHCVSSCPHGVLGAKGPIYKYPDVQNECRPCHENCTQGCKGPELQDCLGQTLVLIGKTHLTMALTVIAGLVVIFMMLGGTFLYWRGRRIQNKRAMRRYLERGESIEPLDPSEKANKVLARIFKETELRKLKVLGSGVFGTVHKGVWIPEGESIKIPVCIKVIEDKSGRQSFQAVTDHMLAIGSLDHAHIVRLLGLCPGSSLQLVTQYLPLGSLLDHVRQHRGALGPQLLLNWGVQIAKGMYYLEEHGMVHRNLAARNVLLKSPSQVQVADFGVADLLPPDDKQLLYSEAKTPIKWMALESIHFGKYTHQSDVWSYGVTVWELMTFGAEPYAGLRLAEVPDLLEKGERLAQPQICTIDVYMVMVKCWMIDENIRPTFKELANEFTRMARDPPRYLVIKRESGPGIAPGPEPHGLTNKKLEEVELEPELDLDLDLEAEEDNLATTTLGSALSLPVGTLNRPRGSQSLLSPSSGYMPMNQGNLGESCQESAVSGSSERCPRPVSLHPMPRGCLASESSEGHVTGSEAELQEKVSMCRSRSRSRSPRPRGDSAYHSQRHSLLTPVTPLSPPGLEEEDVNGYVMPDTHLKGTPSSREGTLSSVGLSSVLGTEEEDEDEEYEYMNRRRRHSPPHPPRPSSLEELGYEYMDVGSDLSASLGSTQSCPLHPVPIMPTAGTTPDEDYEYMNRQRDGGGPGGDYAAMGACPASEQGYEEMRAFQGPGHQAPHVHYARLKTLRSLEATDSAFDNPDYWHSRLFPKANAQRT
T3 sequence (P21860 20-643): as the sequence (P21860 20-643 limits assumed) above
T4 sequence (Q61526 20-641): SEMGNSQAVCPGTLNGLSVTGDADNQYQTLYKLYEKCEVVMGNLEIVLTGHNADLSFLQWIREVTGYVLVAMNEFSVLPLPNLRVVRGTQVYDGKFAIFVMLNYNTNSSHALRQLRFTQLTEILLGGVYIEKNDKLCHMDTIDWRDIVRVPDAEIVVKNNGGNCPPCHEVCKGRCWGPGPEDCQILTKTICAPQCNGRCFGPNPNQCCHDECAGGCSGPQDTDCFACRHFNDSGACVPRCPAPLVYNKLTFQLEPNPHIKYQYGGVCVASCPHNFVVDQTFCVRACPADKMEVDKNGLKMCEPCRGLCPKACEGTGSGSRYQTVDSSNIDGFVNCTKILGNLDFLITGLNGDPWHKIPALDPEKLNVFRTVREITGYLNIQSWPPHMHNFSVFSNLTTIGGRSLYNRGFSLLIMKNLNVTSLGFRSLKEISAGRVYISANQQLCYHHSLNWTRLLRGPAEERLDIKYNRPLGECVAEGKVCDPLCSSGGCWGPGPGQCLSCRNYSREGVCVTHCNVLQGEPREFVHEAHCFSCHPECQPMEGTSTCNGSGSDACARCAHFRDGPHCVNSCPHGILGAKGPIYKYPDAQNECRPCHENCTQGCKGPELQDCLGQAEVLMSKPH

B1: Rab189 (antibody, V domains shown)
VH: QESLEESGGDLVKPEGTLTLTCKASGIGFGYYYYICWVRQAPGKGLEWIACIYTGISDSTYYATWAKGRFAISKTSSTTVTLQMTSLTAADTATYFCARSDPYYTTTYTNTYPTYWNLWGPGTLVTVSS
VL: CAFELTQTPSSVEAAVGGTVTIKCQASQSINNYLAWYQQKTGQPPKLLIYRASTLESGVPSRFKGSGSGTQFTLTISDLECADAATYYCQSYYYSSSNNYYNAFGGGTEVVVK
notes: also called Rab189 monoclonal antibody
Turning to B1, the “% Receptor Internalization” value in assay [1] was found to be 55%. Also, in [2], the “pAKT inhibition, EC50 (nM)” value came out at 3.6 nM; the “pERK ½ inhibition, EC50 (nM)” value was found to be 5.5 nM; the “pHER3 inhibition, EC50 (nM)” value amounted to 1.7 nM. Besides, the 50% inhibitory concentration (IC50) with Her3/His10 receptor was found to be 0.07 nM. Further, the Kd in assay [3] came out at 3.6 nM.

B2: HER3-hMab-A14 (antibody, V domains shown)
VH: QVQLVESGGGLVQPGGSLRLSCSASGFSFSSSYWICWVRQAPGKGLELIGYIWSGNGATYYASWAKGRFTISRDTSKNTVYLQMNSLRAEDTAVYFCARNYDASGYGIFHLWGPGTLVTVSS
VL: DIQMTQTPSSLSASVGDRVTINCQASQSIVSSYLSWYQQKPGKPPKLLIYSASKLASGVPSRFSGSGSGTDFTLTISSLQPEDFATYYCLYGVDSSNIDNAFGGGTKVEIK
Regarding B2, the “Inhibition of MCF-7 cancer cell proliferation (IC50, µg/ml)” value in assay [4] was 0.232 µg/mL. In assay [5], this molecule showed a Kd of 0.862 nM, a koff of 0.000174 s⁻¹ and a kon of 201000 M⁻¹ s⁻¹. In assay [6], this molecule had an EC50 of 1.9 ng/mL. Also, the “pHER3 inhibition (IC50, µg/ml)” value in assay [7] was determined as 0.0017 µg/ml.

B3: Rab46 (antibody, V domains shown)
VH: EEQLVESGGGLVQPEGSLTLTCTASGFSFSASYYIYWVRQAPGKGLEGIAYITGDDDKRTYYANWAKGRFTISKTSTTVTLQMTSLTAADTATYFCTRNLPDELWGPGTLVTVSS
VL: QAVVTQTPSSVSAAVGGTVTISCQSSESVYSYKNLAWYQQKPGQPPRLLIWQASRLSSGVSSRFSGSGSGTQFTLTISGVQCDDAATYYCQGTYYSSAWDFVFGGGTEVMVE
notes: also called Rab46 monoclonal antibody
Consider B3, for which the “% Receptor Internalization” value in [1] turned out to be 39%. In addition, in [2], the “pAKT inhibition, EC50 (nM)” value stood at 3.8 nM; the “pERK ½ inhibition, EC50 (nM)” value was determined as 6.2 nM; the “pHER3 inhibition, EC50 (nM)” value came to 3.5 nM. The molecule also showed an IC50 with Her3/His10 receptor of 0.51 nM. In assay [3], the Kd came to 7.3 nM.

B4: Chi46 (antibody, V domains shown)
VH: EEQLVESGGGLVQPEGSLTLTCTASGFSFSASYYIYWVRQAPGKGLEGIAYITGDDDKRTYYANWAKGRFTISKTSTTVTLQMTSLTAADTATYFCTRNLPDELWGPGTLVTVSS
VL: QAVVTQTPSSVSAAVGGTVTISCQSSESVYSYKNLAWYQQKPGQPPRLLIWQASRLSSGVSSRFSGSGSGTQFTLTISGVQCDDAATYYCQGTYYSSAWDFVFGGGTEVMVE
notes: also called parental rabbit/human Fc chimera of Rab46
The molecule B4 gave an EC50 with Mouse HER3 ECD [8] of 5.9 ng/mL. In assay [5], this molecule displayed a Kd of 3.32 nM, a koff of 0.000458 s⁻¹ and a kon of 138000 M⁻¹ s⁻¹. In [6], this molecule gave a half-maximal effective concentration (EC50) of 2.7 ng/mL. The “pHER3 inhibition (IC50, µg/ml)” value in [7] was 0.033 µg/ml.

B5: Rab774 (antibody, V domains shown)
VH: QSVEESGGRLVTPGTPLTLTCTVSGIDLSTYAMTWVRRAPGKGLEWLGIINRSSKTYLTDWARGRFTISKTSTTVDLKISSPTTEDTATYFCGRVMSPYSVAGGDLWGPGTLVTVSS
VL: QPVLTQSPSASAALGASAKLTCILSSDLSDYTIDWYKHQQGEAPRYLMQLRSDGSYTKGTGVPDRFSGSSSGADRYLVISSVQADDEADYYCGLPYSVEYVFGGGTQLTVT
notes: also called Rab774 monoclonal antibody
On to B5, for which the “% Receptor Internalization” value in assay [1] turned out to be 60%. Also, in assay [2], the “pAKT inhibition, EC50 (nM)” value came out at 2.3 nM; the “pERK ½ inhibition, EC50 (nM)” value amounted to 3.8 nM; the “pHER3 inhibition, EC50 (nM)” value stood at 1.8 nM. The same molecule registered a half-inhibitory concentration (IC50) in the assay with Her3/His10 receptor of 0.52 nM. In [3], the dissociation constant (Kd) came out at 0.16 nM.

B6: HER3-hMab-A9 (antibody, V domains shown)
VH: QVQLVESGGGLVQPGGSLRLSCSASGFSFSASYYIYWVRQAPGKGLEYIAYITGDDDKRTYYANWAKGRFTISRDNSKNTVYLQMNSLRAEDTAVYYCTRNLPDELWGPGTLVTVSS
VL: DIQMTQTPSTLSASVGDRVTITCQSSESVYSYKNLAWYQQKPGKPPKLLIWQASRLSSGVPSRFSGSGSGTEFTLTISSLQPDDFATYYCQGTYYSSAWDFVFGGGTKVEIK
B6: the EC50 in assay [6] amounted to 3.1 ng/mL; in the assay with Mouse HER3 ECD [9], 4.3 ng/mL.

B7: HER3-hMab-A10 (antibody, V domains shown)
VH: QVQLVESGGGLVQPGGSLRLSCSASGFSFSASYYIYWVRQAPGKGLEYIAYITGDDDKRTYYANWAKGRFTISRDTSKNTVYLQMNSLRAEDTAVYYCTRNLPDELWGPGTLVTVSS
VL: DIQMTQTPSTLSASVGDRVTITCQSSESVYSYKNLAWYQQKPGKPPKLLIWQASRLSSGVPSRFSGSGSGTEFTLTISSLQPDDFATYYCQGTYYSSAWDFVFGGGTKVEIK
Take B7: in assay [4], the “Inhibition of MCF-7 cancer cell proliferation (IC50, µg/ml)” value was 0.181 µg/mL. In assay [5], this molecule had a Kd of 1.2 nM, a koff of 0.000169 s⁻¹ and a kon of 141000 M⁻¹ s⁻¹. Besides, in [6], the EC50 is 2.6 ng/mL. In the assay with Mouse HER3 ECD [9], this molecule registered an EC50 of 5.4 ng/mL. Also, the “pHER3 inhibition (IC50, µg/ml)” value in assay [7] is 0.0173 µg/ml.

B8: HER3-hMab-A12 (antibody, V domains shown)
VH: QVQLVESGGGLVQPGGSLRLSCSASGFSFSASYYIYWVRQAPGKGLEYIAYITGDDDKRTYYANWAKGRFTISRDTSKNTVYLQMNSLRAEDTAVYYCTRNLPDELWGPGTLVTVSS
VL: QAQMTQTPSTLSASVGDRVTITCQSSESVYSYKNLAWYQQKPGKPPKLLIWQASRLSSGVPSRFSGSGSGTEFTLTISSLQPDDFATYYCQGTYYSSAWDFVFGGGTKVEIK
For B8, the results for the EC50 (in [6]; in the assay with Mouse HER3 ECD [9]) were 2.4 ng/mL and 6.7 ng/mL, respectively.

B9: HER3-hMab-A11 (antibody, V domains shown)
VH: QVQLVESGGGLVQPGGSLRLSCSASGFSFSASYYIYWVRQAPGKGLEYIAYITGDDDKRTYYANWAKGRFTISRDNSKNTVYLQMNSLRAEDTAVYYCTRNLPDELWGPGTLVTVSS
VL: QAQMTQTPSTLSASVGDRVTITCQSSESVYSYKNLAWYQQKPGKPPKLLIWQASRLSSGVPSRFSGSGSGTEFTLTISSLQPDDFATYYCQGTYYSSAWDFVFGGGTKVEIK
In the case of B9, the results for the EC50 (in [6]; with Mouse HER3 ECD [9]) were 2.6 ng/mL and 7.9 ng/mL, respectively.

B10: Rab1210 (antibody, V domains shown)
VH: QEQLEESGGGLVQPEGSLTLTCTASGFSFSSSYWICWVRQAPGKGLELIGYIWSGNGATYYASWAKGRFTISKTSSTTVTLQMTSVTATDTATYFCARNYDASGYGIFHLWGPGTLVTVSS
VL: AVVMTQTPASVSAAVGGTVTINCQASQSIVSSYLSWYQQKTGQPPKLLIYSASKLASGVPPRFSGSGSGTQFTLTISGVQCDDAATYYCLYGVDSSNIDNAFGGGTEVVVK
notes: also called Rab1210 monoclonal antibody
Turning to B10, the “% Receptor Internalization” value in assay [1] was 62%. In assay [2], the “pAKT inhibition, EC50 (nM)” value turned out to be 0.4 nM; the “pERK ½ inhibition, EC50 (nM)” value amounted to 1.3 nM; the “pHER3 inhibition, EC50 (nM)” value stood at 0.7 nM. Further, the IC50 in the assay with Her3/His10 receptor was found to be 0.1 nM. Moreover, in assay [3], the Kd was 1 nM.

B11: Chi1210 (antibody, V domains shown)
VH: QEQLEESGGGLVQPEGSLTLTCTASGFSFSSSYWICWVRQAPGKGLELIGYIWSGNGATYYASWAKGRFTISKTSSTTVTLQMTSVTATDTATYFCARNYDASGYGIFHLWGPGTLVTVSS
VL: AVVMTQTPASVSAAVGGTVTINCQASQSIVSSYLSWYQQKTGQPPKLLIYSASKLASGVPPRFSGSGSGTQFTLTISGVQCDDAATYYCLYGVDSSNIDNAFGGGTEVVVK
notes: also called parental rabbit/human Fc chimera of Rab1210
As for B11, the “Inhibition of MCF-7 cancer cell proliferation (IC50, µg/ml)” value in assay [4] amounted to 0.084 µg/mL. In assay [5], this molecule gave a Kd of 1.2 nM, a koff of 0.000644 s⁻¹ and a kon of 538000 M⁻¹ s⁻¹. For the same molecule, in [6], a half-maximal effect (EC50) was put at 2.6 ng/mL. In addition, the “pHER3 inhibition (IC50, µg/ml)” value in assay [7] was 0.0035 µg/ml.
